This is an account of results in US20220041721A1 (WUHAN YZY BIOPHARMA, published 2022).

The target in this assay is T1, monkey CD3 (monkey).
T1 construct: whole, on cells; also called CD3 on monkey CD3 positive T cells
Kind of assay: flow cytometry on monkey CD3 positive T cells. In general terms: In flow cytometry, cells or beads pass a laser one at a time.

B1: Y150-F8-8 (bispecific antibody, human IgG1, kappa)
scFv: QVQLVESGGGVVQPGRSLRLSCAASGFTFSTYAMNWVRQAPGKGLEWVARIRSKYNNYATYYADSVKDRFTISRDDSKNTLYLQMNSLRAEDTAVYYCARHGNFGNSYVSWFAYWGQGTLVTVSSGGGGSGGGGSGGGGSQTVVTQEPSLTVSPGGTVTLTCRSSTGAVTTSNYANWVQQKPGQAPRGLIGGTNKRAPGVPARFSGSLLGGKAALTLSGVQPEDEAEYYCALWYSNLWVFGGGTKVEIKGRGRGSDKTHTCPPSPAPPVAGPSVFLFPPKPKDTLMISRTPEVTCVVVDVSHEDPEVQFNWYVDGVEVHNAKTKPREEQFNSTFRVVSVLTVVHQDWLNGKEYKCKVSNKGLPAPIEKTISKTKGQPREPQVCTLPPSRDELTKNQVSLSCAVKGFYPSDIAVEWESNGQPENNYKTTPPVLDSDGSFFLVSKLTVDKSRWQQGNVFSCSVMHEALHNHYTQKSLSLSPGK
heavy: EVQLLESGGGLVQPGGSLRLSCAVSGFTFNSFAMSWVRQAPGKGLEWVSAISGSGGGTYYADSVKGRFTISRDNSKNTLYLQMNSLRAEDTAVYFCAKDKILWFGEPVFDYWGQGTLVTVSSASTKGPSVFPLAPSSKSTSGGTAALGCLVKDYFPEPVTVSWNSGALTSGVHTFPAVLQSSGLYSLSSVVTVPSSSLGTQTYICNVNHKPSNTKVDKKVEPKSCDKTHTCPPSPAPPVAGPSVFLFPPKPKDTLMISRTPEVTCVVVDVSHEDPEVQFNWYVDGVEVHNAKTKPREEQFNSTFRVVSVLTVVHQDWLNGKEYKCKVSNKGLPAPIEKTISKTKGQPREPQVYTLPPCRDELTKNQVSLWCLVKGFYPSDIAVEWESNGQPENNYKTTPPVLDSDGSFFLYSKLTVDKSRWQQGNVFSCSVMHEALHNHYTQKSLSLSPGK
light: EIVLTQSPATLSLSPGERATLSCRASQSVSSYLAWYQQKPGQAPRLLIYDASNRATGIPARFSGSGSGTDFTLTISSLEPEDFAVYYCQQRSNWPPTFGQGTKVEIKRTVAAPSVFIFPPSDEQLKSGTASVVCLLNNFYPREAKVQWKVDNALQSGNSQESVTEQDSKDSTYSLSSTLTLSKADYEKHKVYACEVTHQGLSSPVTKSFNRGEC
notes: Anti-CD38 (Dara) Fab arm and anti-CD3 scFv (VH2a/VL5)-Fc fusion peptide, CH2 SG2
Take B1: a half-maximal response (EC50) required 159 nM.

B2: CT-F3 (bispecific antibody, human IgG1, kappa)
scFv: EVQLVESGGGLVQPGGSLRLSCAASGFTFSTYAMNWVRQAPGKGLEWVARIRSKYNNYATYYADSVKDRFTISRDDSKNTLYLQMNSLRAEDTAVYYCARHGNFGNSYVSWFAYWGQGTMVTVSSGGGGSGGGGSGGGGSQAVVTQEPSLTVSPGGTVTLTCGSSTGAVTTSNYANWVQQKPGQAPRGLIGGTNKRAPGVPARFSGSLLGGKAALTLSGAQPEDEAEYYCALWYSNLWVFGGGTKLEIKGGGGSDKTHTCPPCPAPEFEGGPSVFLFPPKPKDTLMISRTPEVTCVVVDVSHEDPEVKFNWYVDGVEVHNAKTKPREEQYNSTYRVVSVLTVLHQDWLNGKEYKCKVSNKALPASIEKTISKAKGQPREPQVCTLPPSRDELTKNQVSLSCAVKGFYPSDIAVEWESNGQPENNYKTTPPVLDSDGSFFLVSKLTVDKSRWQQGNVFSCSVMHEALHNHYTQKSLSLSPGK
heavy: EVQLLESGGGLVQPGGSLRLSCAVSGFTFNSFAMSWVRQAPGKGLEWVSAISGSGGGTYYADSVKGRFTISRDNSKNTLYLQMNSLRAEDTAVYFCAKDKILWFGEPVFDYWGQGTLVTVSSASTKGPSVFPLAPSSKSTSGGTAALGCLVKDYFPEPVTVSWNSGALTSGVHTFPAVLQSSGLYSLSSVVTVPSSSLGTQTYICNVNHKPSNTKVDKKVEPKSCDKTHTCPPCPAPEFEGGPSVFLFPPKPKDTLMISRTPEVTCVVVDVSHEDPEVKFNWYVDGVEVHNAKTKPREEQYNSTYRVVSVLTVLHQDWLNGKEYKCKVSNKALPASIEKTISKAKGQPREPQVYTLPPCRDELTKNQVSLWCLVKGFYPSDIAVEWESNGQPENNYKTTPPVLDSDGSFFLYSKLTVDKSRWQQGNVFSCSVMHEALHNHYTQKSLSLSPGK
light: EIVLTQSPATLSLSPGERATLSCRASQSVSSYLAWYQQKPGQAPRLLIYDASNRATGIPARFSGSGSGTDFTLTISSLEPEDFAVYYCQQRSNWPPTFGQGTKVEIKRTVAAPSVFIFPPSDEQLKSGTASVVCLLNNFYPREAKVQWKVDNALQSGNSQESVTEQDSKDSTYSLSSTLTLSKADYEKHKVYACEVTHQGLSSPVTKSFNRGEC
notes: Comparative: anti-CD38 (Dara) Fab arm and anti-CD3 scFv (CD3 antibody 1 VH, CD3 antibody 2 VL)-Fc fusion peptide
For B2, the EC50 turned out to be 229 nM.

B3: Y150-F8-7 (bispecific antibody, human IgG1, kappa, N297A)
scFv: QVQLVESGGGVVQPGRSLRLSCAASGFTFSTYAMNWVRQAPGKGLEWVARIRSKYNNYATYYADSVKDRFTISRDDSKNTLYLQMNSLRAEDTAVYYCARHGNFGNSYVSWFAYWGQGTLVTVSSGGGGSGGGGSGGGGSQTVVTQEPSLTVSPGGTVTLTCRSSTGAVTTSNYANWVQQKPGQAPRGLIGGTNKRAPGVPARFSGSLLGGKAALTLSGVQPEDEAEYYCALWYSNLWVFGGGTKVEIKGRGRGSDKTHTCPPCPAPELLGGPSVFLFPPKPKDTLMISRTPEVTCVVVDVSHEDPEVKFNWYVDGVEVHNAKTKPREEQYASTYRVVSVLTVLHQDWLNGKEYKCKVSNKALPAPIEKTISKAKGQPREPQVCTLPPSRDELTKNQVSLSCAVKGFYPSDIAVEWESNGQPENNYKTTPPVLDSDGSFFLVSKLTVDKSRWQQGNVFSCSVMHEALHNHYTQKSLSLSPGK
heavy: EVQLLESGGGLVQPGGSLRLSCAVSGFTFNSFAMSWVRQAPGKGLEWVSAISGSGGGTYYADSVKGRFTISRDNSKNTLYLQMNSLRAEDTAVYFCAKDKILWFGEPVFDYWGQGTLVTVSSASTKGPSVFPLAPSSKSTSGGTAALGCLVKDYFPEPVTVSWNSGALTSGVHTFPAVLQSSGLYSLSSVVTVPSSSLGTQTYICNVNHKPSNTKVDKKVEPKSCDKTHTCPPCPAPELLGGPSVFLFPPKPKDTLMISRTPEVTCVVVDVSHEDPEVKFNWYVDGVEVHNAKTKPREEQYASTYRVVSVLTVLHQDWLNGKEYKCKVSNKALPAPIEKTISKAKGQPREPQVYTLPPCRDELTKNQVSLWCLVKGFYPSDIAVEWESNGQPENNYKTTPPVLDSDGSFFLYSKLTVDKSRWQQGNVFSCSVMHEALHNHYTQKSLSLSPGK
light: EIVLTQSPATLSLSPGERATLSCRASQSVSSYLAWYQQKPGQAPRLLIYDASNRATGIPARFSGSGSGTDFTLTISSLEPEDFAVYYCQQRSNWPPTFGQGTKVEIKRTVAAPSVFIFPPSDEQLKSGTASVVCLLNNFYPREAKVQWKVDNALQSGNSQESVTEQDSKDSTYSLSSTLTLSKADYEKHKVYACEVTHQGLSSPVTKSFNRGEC
notes: Anti-CD38 (Dara) Fab arm and anti-CD3 scFv (VH2a/VL5)-Fc fusion peptide, CH2 N297A
In the case of B3, the half-maximal effective concentration (EC50) amounted to 142 nM.

B4: Y150-F8-6 (bispecific antibody, human IgG1, kappa)
scFv: QVQLVESGGGVVQPGRSLRLSCAASGFTFSTYAMNWVRQAPGKGLEWVARIRSKYNNYATYYADSVKDRFTISRDDSKNTLYLQMNSLRAEDTAVYYCVRHGNFGNSYVSWFAYWGQGTLVTVSSGGGGSGGGGSGGGGSQTVVTQEPSLTVSPGGTVTLTCRSSTGAVTTSNYANWVQQKPGQAPRGLIGGTNKRAPGVPARFSGSLLGGKAALTLSGVQPEDEAEYYCALWYSNLWVFGGGTKVEIKGGGGSDKTHTCPPCPAPEFEGGPSVFLFPPKPKDTLMISRTPEVTCVVVDVSHEDPEVKFNWYVDGVEVHNAKTKPREEQYNSTYRVVSVLTVLHQDWLNGKEYKCKVSNKALPASIEKTISKAKGQPREPQVCTLPPSRDELTKNQVSLSCAVKGFYPSDIAVEWESNGQPENNYKTTPPVLDSDGSFFLVSKLTVDKSRWQQGNVFSCSVMHEALHNHYTQKSLSLSPGK
heavy: EVQLLESGGGLVQPGGSLRLSCAVSGFTFNSFAMSWVRQAPGKGLEWVSAISGSGGGTYYADSVKGRFTISRDNSKNTLYLQMNSLRAEDTAVYFCAKDKILWFGEPVFDYWGQGTLVTVSSASTKGPSVFPLAPSSKSTSGGTAALGCLVKDYFPEPVTVSWNSGALTSGVHTFPAVLQSSGLYSLSSVVTVPSSSLGTQTYICNVNHKPSNTKVDKKVEPKSCDKTHTCPPCPAPEFEGGPSVFLFPPKPKDTLMISRTPEVTCVVVDVSHEDPEVKFNWYVDGVEVHNAKTKPREEQYNSTYRVVSVLTVLHQDWLNGKEYKCKVSNKALPASIEKTISKAKGQPREPQVYTLPPCRDELTKNQVSLWCLVKGFYPSDIAVEWESNGQPENNYKTTPPVLDSDGSFFLYSKLTVDKSRWQQGNVFSCSVMHEALHNHYTQKSLSLSPGK
light: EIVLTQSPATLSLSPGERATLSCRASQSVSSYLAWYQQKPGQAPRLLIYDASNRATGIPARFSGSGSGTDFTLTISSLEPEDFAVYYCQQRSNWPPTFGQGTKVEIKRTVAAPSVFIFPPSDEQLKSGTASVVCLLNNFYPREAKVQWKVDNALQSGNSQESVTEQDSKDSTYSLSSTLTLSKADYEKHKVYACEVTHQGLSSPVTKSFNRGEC
notes: also called Y150-8-6
In turn, B4 had a 50% effective concentration (EC50) of 29.2 nM.

B5: CT-F2 (bispecific antibody, human IgG1, kappa)
scFv: EVQLVESGGGLVQPGGSLRLSCAASGFTFNTYAMNWVRQAPGKGLEWVGRIRSKYNNYATYYADSVKGRFTISRDDSKNTLYLQMNSLRAEDTAVYYCARHGNFGNSYVSWFAYWGQGTLVTVSSGGGGSGGGGSGGGGSQAVVTQEPSLTVSPGGTVTLTCGSSTGAVTTSNYANWVQQKPGQAPRGLIGGTNKRAPGVPARFSGSLLGGKAALTLSGAQPEDEAEYYCALWYSNLWVFGGGTKLEIKGGGGSDKTHTCPPCPAPEFEGGPSVFLFPPKPKDTLMISRTPEVTCVVVDVSHEDPEVKFNWYVDGVEVHNAKTKPREEQYNSTYRVVSVLTVLHQDWLNGKEYKCKVSNKALPASIEKTISKAKGQPREPQVCTLPPSRDELTKNQVSLSCAVKGFYPSDIAVEWESNGQPENNYKTTPPVLDSDGSFFLVSKLTVDKSRWQQGNVFSCSVMHEALHNHYTQKSLSLSPGK
heavy: EVQLLESGGGLVQPGGSLRLSCAVSGFTFNSFAMSWVRQAPGKGLEWVSAISGSGGGTYYADSVKGRFTISRDNSKNTLYLQMNSLRAEDTAVYFCAKDKILWFGEPVFDYWGQGTLVTVSSASTKGPSVFPLAPSSKSTSGGTAALGCLVKDYFPEPVTVSWNSGALTSGVHTFPAVLQSSGLYSLSSVVTVPSSSLGTQTYICNVNHKPSNTKVDKKVEPKSCDKTHTCPPCPAPEFEGGPSVFLFPPKPKDTLMISRTPEVTCVVVDVSHEDPEVKFNWYVDGVEVHNAKTKPREEQYNSTYRVVSVLTVLHQDWLNGKEYKCKVSNKALPASIEKTISKAKGQPREPQVYTLPPCRDELTKNQVSLWCLVKGFYPSDIAVEWESNGQPENNYKTTPPVLDSDGSFFLYSKLTVDKSRWQQGNVFSCSVMHEALHNHYTQKSLSLSPGK
light: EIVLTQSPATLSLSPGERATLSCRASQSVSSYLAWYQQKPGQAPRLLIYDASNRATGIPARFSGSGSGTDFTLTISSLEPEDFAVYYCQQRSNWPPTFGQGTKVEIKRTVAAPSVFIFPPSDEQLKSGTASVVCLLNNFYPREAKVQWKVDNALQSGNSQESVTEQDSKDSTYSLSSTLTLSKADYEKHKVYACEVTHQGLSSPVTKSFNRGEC
notes: Comparative: anti-CD38 (Dara) Fab arm and anti-CD3 scFv (CD3 antibody 2 VH/VL)-Fc fusion peptide
B5 yielded an EC50 of 174 nM.

B6: Y150-F8-5 (bispecific antibody, human IgG1, kappa)
scFv: QVQLVESGGGVVQPGRSLRLSCAASGFTFSTYAMNWVRQAPGKGLEWVARIRSKYNNYATYYADSVKDRFTISRDDSKNTLYLQMNSLRAEDTAVYYCARHGNFGNSYVSWFAYWGQGTLVTVSSGGGGSGGGGSGGGGSQTVVTQEPSLTVSPGGTVTLTCRSSTGAVTTSNYANWVQQKPGQAPRGLIGGTNKRAPGVPARFSGSLLGGKAALTLSGVQPEDEAEYYCALWYSNLWVFGGGTKVEIKGGGGSDKTHTCPPCPAPEFEGGPSVFLFPPKPKDTLMISRTPEVTCVVVDVSHEDPEVKFNWYVDGVEVHNAKTKPREEQYNSTYRVVSVLTVLHQDWLNGKEYKCKVSNKALPASIEKTISKAKGQPREPQVCTLPPSRDELTKNQVSLSCAVKGFYPSDIAVEWESNGQPENNYKTTPPVLDSDGSFFLVSKLTVDKSRWQQGNVFSCSVMHEALHNHYTQKSLSLSPGK
heavy: EVQLLESGGGLVQPGGSLRLSCAVSGFTFNSFAMSWVRQAPGKGLEWVSAISGSGGGTYYADSVKGRFTISRDNSKNTLYLQMNSLRAEDTAVYFCAKDKILWFGEPVFDYWGQGTLVTVSSASTKGPSVFPLAPSSKSTSGGTAALGCLVKDYFPEPVTVSWNSGALTSGVHTFPAVLQSSGLYSLSSVVTVPSSSLGTQTYICNVNHKPSNTKVDKKVEPKSCDKTHTCPPCPAPEFEGGPSVFLFPPKPKDTLMISRTPEVTCVVVDVSHEDPEVKFNWYVDGVEVHNAKTKPREEQYNSTYRVVSVLTVLHQDWLNGKEYKCKVSNKALPASIEKTISKAKGQPREPQVYTLPPCRDELTKNQVSLWCLVKGFYPSDIAVEWESNGQPENNYKTTPPVLDSDGSFFLYSKLTVDKSRWQQGNVFSCSVMHEALHNHYTQKSLSLSPGK
light: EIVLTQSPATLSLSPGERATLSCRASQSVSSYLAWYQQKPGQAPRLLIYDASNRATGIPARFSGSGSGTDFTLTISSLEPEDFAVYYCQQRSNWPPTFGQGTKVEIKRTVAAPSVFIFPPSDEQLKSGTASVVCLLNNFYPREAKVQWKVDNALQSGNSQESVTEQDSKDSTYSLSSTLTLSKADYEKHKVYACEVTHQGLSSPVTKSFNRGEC
notes: also called Y150-8-5
In the case of B6, a half-maximal response (EC50) required 291 nM.

B7: CT-F1 (bispecific antibody, human IgG1, kappa)
scFv: EVQLVESGGGLVQPGGSLRLSCAASGFTFSTYAMNWVRQAPGKGLEWVARIRSKYNNYATYYADSVKDRFTISRDDSKNTLYLQMNSLRAEDTAVYYCARHGNFGNSYVSWFAYWGQGTMVTVSSGGGGSGGGGSGGGGSQAVVTQEPSLTVSPGGTVTLTCRSSTGAVTTSNYANWVQQKPGQAPRGLIGGTNKRAPGTPARFSGSLLGGKAALTLSGVQPEDEAEYYCALWYSNLWVFGGGTKLTVLGGGGSDKTHTCPPCPAPEFEGGPSVFLFPPKPKDTLMISRTPEVTCVVVDVSHEDPEVKFNWYVDGVEVHNAKTKPREEQYNSTYRVVSVLTVLHQDWLNGKEYKCKVSNKALPASIEKTISKAKGQPREPQVCTLPPSRDELTKNQVSLSCAVKGFYPSDIAVEWESNGQPENNYKTTPPVLDSDGSFFLVSKLTVDKSRWQQGNVFSCSVMHEALHNHYTQKSLSLSPGK
heavy: EVQLLESGGGLVQPGGSLRLSCAVSGFTFNSFAMSWVRQAPGKGLEWVSAISGSGGGTYYADSVKGRFTISRDNSKNTLYLQMNSLRAEDTAVYFCAKDKILWFGEPVFDYWGQGTLVTVSSASTKGPSVFPLAPSSKSTSGGTAALGCLVKDYFPEPVTVSWNSGALTSGVHTFPAVLQSSGLYSLSSVVTVPSSSLGTQTYICNVNHKPSNTKVDKKVEPKSCDKTHTCPPCPAPEFEGGPSVFLFPPKPKDTLMISRTPEVTCVVVDVSHEDPEVKFNWYVDGVEVHNAKTKPREEQYNSTYRVVSVLTVLHQDWLNGKEYKCKVSNKALPASIEKTISKAKGQPREPQVYTLPPCRDELTKNQVSLWCLVKGFYPSDIAVEWESNGQPENNYKTTPPVLDSDGSFFLYSKLTVDKSRWQQGNVFSCSVMHEALHNHYTQKSLSLSPGK
light: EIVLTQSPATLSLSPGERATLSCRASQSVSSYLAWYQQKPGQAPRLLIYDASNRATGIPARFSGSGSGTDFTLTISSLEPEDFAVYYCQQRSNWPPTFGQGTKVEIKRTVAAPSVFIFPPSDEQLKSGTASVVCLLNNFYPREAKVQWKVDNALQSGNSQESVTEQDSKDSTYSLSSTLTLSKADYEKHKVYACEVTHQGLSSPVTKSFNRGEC
notes: Comparative: anti-CD38 (Dara) Fab arm and anti-CD3 scFv (CD3 antibody 1 VH/VL)-Fc fusion peptide
As to B7, a half-maximal effect (EC50) was put at 347 nM.

What is called EC50 is the concentration that produces a half-maximal response.
